Reference: the nanobody polyreactivity screen of Harvey et al. (2022)

Test: yeast display, Sf9 membrane polyspecificity reagent, FACS + sequencing; frameworks hold sequencing errors
Outline: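 A nanobody's polyreactivity label depends on the gate it was sorted from. Yeast display cells were stained with 10% biotinylated, detergent-solubilized Sf9 membrane reagent for 1 hour at 4 °C, enriched on streptavidin microbeads and sorted by FACS. The low and high (top ~1%) gates were set on anti-HA fluorescence for expression and streptavidin fluorescence for reagent binding.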

## QVQLVESGGGLVQAGGSLRLSCSASGSTFYYNAMGWYRQAPGKERELVARISRSGGSTYADSVKGRFTISRDNAKNTVYLQMNSLKPEDTAVYYCNAIGYTGPVAYPEYDYWGQGTQVTVSS
  polyreactivity (PSR sort gate): low polyreactivity

## QVQLVESGGGLVQAGGSLRLSCSASGSTSFYNAIGWYRQAPGKERELVAAISWSTGSTYYADSVKGRFTISRDNAKNTVYLQMTSLKPEDTAVYYCAAETGKNVDFVWVLAYPRLDYWGQGTQVTVSS
  polyreactivity (PSR sort gate): low polyreactivity

## QVQLVESGGGLVQAGGSLRLSCSASGYIFLRNAMGWYRQAPGKERALVAAIRRTGGSTYYADSVKGRFTISRDNSKNTVYLQMTSLKPEDTAVYYCDKRSYTGYEYWGQGTQVTVSS
  polyreactivity (PSR sort gate): low polyreactivity

## QVQLVESGGGLVQAGGSLRLSCSAYGRIFRGYAMGGYRQAPGKERELVASISGGDSTYADSVQGRFTISRDNAKNTVYLQMNSLKPEDTAVYYCADDNEWPRYDYWGQGTQVTVSS
  polyreactivity (PSR sort gate): low polyreactivity

## QVQLVESGGGLVQAGGSLRLSCSAYGSTLGYYAMGWYRQAPGKERELVAAIRYSDGNTYYADSVKGRFTISRDNAKNTVYLQMNSLKPEDTAVYYCAADGGYYGRDYWGQGTQVTVSS
  polyreactivity (PSR sort gate): high polyreactivity

## QVQLVESGGGLVQAGGSLRLSCSAYGYTFSHYAMGWYRQAPGKERELVAGITWSGGSTYYADSVKGRYTISRDNAKNTVYLQMNSLKPEDTSVYYCAAKYYWYYSYSGIPLFDYWGQGTQVTVSS
  polyreactivity (PSR sort gate): low polyreactivity

## QVQLVESGGGLVQAGGSLRLSCSSSGLIFRRNAMGWYRQAPGKERELVAVIDRGGRTNYADSVKGRFTISRDNAKNTVYLQMNSLKPEDTAVYYCDKRYASTSGYWGQGTQVTVSS
  polyreactivity (PSR sort gate): high polyreactivity

## QVQLVESGGGLVQAGGSLRLSCVASGFNFRGNAMGLYRQAPGKERELVATISSGGNTYYADSVKGRFTISRDNAKNTVYLQMNSLKPEDTAVYYCNASDGLPTKLNVYVEFDYWGQGTQVTVSS
  polyreactivity (PSR sort gate): low polyreactivity

## QVQLVESGGGLVQAGGSLRLSCVASGRIFSVYAMGWYRQAPAKERELVAGITSSGGSTYYADSVKGRFTISRDNAKNTVYLQMNSLKPEDTAVYYCAAVSEYYKGYDYWGQGTQVTVSS
  polyreactivity (PSR sort gate): high polyreactivity

## QVQLVESGGGLVQAGGSLRLSFAASGFTFGYYTMGWYRQAPGKERELVAAITSGGGTYYADSVKGRFTISRDNAKNTVYLQMNSLKPEDTAVYYCATTPVWYKVSRRYGYWGQGTQVTVSS
  polyreactivity (PSR sort gate): high polyreactivity

## QVQLVESGGGLVQAGGSLRLSFAASGFTFYPYTKGWYRQAPGKEREFVAAISWNCGSTYYADSVKGRFTISRDNAKHTVYLQMNRLKPEDTAVYYCAADFDASRYEYWGQGTQVTVSS
  polyreactivity (PSR sort gate): low polyreactivity

## QVQLVESGGGLVQAGGSLRLSFAASGINFRSYTMGWYRQAPGKERELVAGITRSGGSTYYADSVKGRFTISRDNAKNTVYLQMNSLKPEDSAVYYCAAKFRAGRSSYYWGHGTQVTVSS
  polyreactivity (PSR sort gate): high polyreactivity

## QVQLVESGGGLVQAGGSLRLSFAASGLIFDSNAMGWYRQAPGKERELVASTYYADSVKGRFTISRDNAKNTVYLQMNSLKPEDTAVYYCATTSVYKSVTYDYWGQGTQVTVSS
  polyreactivity (PSR sort gate): low polyreactivity

## QVQLVESGGGLVQAGGSLRLSFAASGRIFPFYAMGWYRQEPGKERELVAALSWNGGSTFYADSVKGRFTISRDNAKNSVYLQMNSLKPEDTAVYYCAADCYATYFLYDSCGQGTQVTVSS
  polyreactivity (PSR sort gate): low polyreactivity

## QVQLVESGGGLVQAGGSLRLSFAASGRTFDRYDMGWYRQAPGKERELVATISSSGGSTYYADSVKGRFTISRDNAKNTVYLQMNSLKPEDTAVYYCAADPSGDYWGQGTQVTVSS
  polyreactivity (PSR sort gate): low polyreactivity

## QVQLVESGGGLVQAGGSLRLSFAASGSIFVKYAMGWYRQAPGKERELVAAITTGVGSTYYADSLKGRFTISRDNAKNTVYLQMNSLKPEDTAVYYCAVRPPRVRTVFYGGNYWGQGTQVTVSS
  polyreactivity (PSR sort gate): low polyreactivity

## QVQLVESGGGLVQAGGSLRLSFAASGSIFYYYAMGWYRQAPGKERELVAAINYSGGSTYADSVKGRFTISLDNAKNTVYLQMNSLKPEDTAVYYCATRLYGYWPYGFEYWGQGTQVTVSS
  polyreactivity (PSR sort gate): low polyreactivity

## QVQLVESGGGLVQAGGSLRLSFAASGSIINAYAMGWYRQAPGKERELVAAINSGGTTYYADSVKGRFTISRDNAKNTVYLQLNSLKPEDTAVYYCAKTRSYGRSGVSRRDGFYYWGQGTQVTVSS
  polyreactivity (PSR sort gate): high polyreactivity

## QVQLVESGGGLVQAGGSLRLSFAASGSTFRRYDMGWYRQAPGKERELVADISDRGSRTYYADSVKGRFTISRDNAKKTVYFQMNSLEPEYTAVYYCAAEAVGNTSPGDYWGQGTQVTVSS
  polyreactivity (PSR sort gate): high polyreactivity

## QVQLVESGGGLVQAGGSLRLSFAPSGRIVPNAMGWYRQAPGKDREMVAAISRSGGSTYYADSVKGRFTISRDNAKNTVYLQMNSLKPEDTAVYYCAKRSTSQSLQGEYWGQGTQVTVSS
  polyreactivity (PSR sort gate): high polyreactivity

## QVQLVESGGGLVQAGGSLRLSFDASGSIFSFYAMGGYSQAPGKERELVAAIRWSGGRTYYADSVKGRFTISRDPAKNTVYLQMNSLKPEDTAVYYCAADKYLDYDYWGQGTQVTVSS
  polyreactivity (PSR sort gate): high polyreactivity

## QVQLVESGGGLVQAGGSLRLSFSASGSTFTSNAMGWYRQAPGKERELVASISGSGGRTYYADSVKGRFTISRDNAKNTVYLQMNSLKPEDTAVYYCNAESRNLYSTQFDYWGQGTQVTVSS
  polyreactivity (PSR sort gate): low polyreactivity

## QVQLVESGGGLVQAGGSLRLSGAAKGSTFRQYAMGWYRQATGKERELVAAISSGGRTNYPDSVKGRFTISRDNAKNTVYFHMNSQKPVDTAVYYSAARFYFQFRRFRRMDYWGQGTQVTVSS
  polyreactivity (PSR sort gate): high polyreactivity

## QVQLVESGGGLVQAGGSLRLSGAASGRIFYSNAMGWYRQAHGKERELVAAITRAGSTNYADSVKGSFTISRDIAKNTVYLQMNSLKPDDTAVYDCAATYGCSVFEYDYWGQGTQVTVSS
  polyreactivity (PSR sort gate): low polyreactivity

## QVQLVESGGGLVQAGGSLRLSGAASGRNFSTNAMGWYRPAPGKERELVAAITSGGNTYADSVKGRFTISRDNAKNTVYLQMNSLKPEDTAVYYCAARLYWGRYNYWGQGTQVTVSS
  polyreactivity (PSR sort gate): high polyreactivity

## QVQLVESGGGLVQAGGSLRLSGAASGRTFVSYTMGWYRQAPGKERQLVAAISDDGDSTYYADSVKGRFTISRDYAKNTVYLQMNSLKPEDTAVYYCAAGEYQYFWFPFDYWGQGTQVTVSS
  polyreactivity (PSR sort gate): low polyreactivity

## QVQLVESGGGLVQAGGSLRLSGAASGRTLYCYAMGWSRQAPGKEREFVAAMSRSGGSTYYADSVKGRFTISRDNAKNTVYLQMNRLKPEETAVYYCADDRSFLQIYKAGPQYRSNYWGQGTQVTVSS
  polyreactivity (PSR sort gate): high polyreactivity

## QVQLVESGGGLVQAGGSLRLSGAASGSIFRDNGMGWYRPAPGKERELVAAINSGDSTYYADSVKGRFTISRDNAKNTVYLQLNSLKPEDTAVYYCNADDRRALSQRQYDWYDYWGQGTQVTVSS
  polyreactivity (PSR sort gate): low polyreactivity

## QVQLVESGGGLVQAGGSLRLSGAASGSTFIINAMGWSSQAPGKELELVAAISGRGTRTYYADSVKGRFTISRDNAKNTVYLQMNSLNPEDTAVYSCAALDTAGPYNTLDIYDHWGQGTQVTVSS
  polyreactivity (PSR sort gate): high polyreactivity

## QVQLVESGGGLVQAGGSLRLSGAASGYIFLGNAMGWYRQAPGKERELVAAISRSGGSTYYADSVKGRFTISRDNAKNTVYFHMNSLKPEYTAVYYCAADLPNPKWYGYDYWGQGTQVNVSS
  polyreactivity (PSR sort gate): high polyreactivity

## QVQLVESGGGLVQAGGSLRLSGDASGSTFIYNAMGWYRQAPGKERELVAAIDWSGGDTYYADSVKGRFTISRDKAKNTVYLLMNSLKPEDTAVYYCAAVKRGGFYWGQGTQVTVSS
  polyreactivity (PSR sort gate): high polyreactivity

## QVQLVESGGGLVQAGGSLRLSRAASGFTLAYYAMGWYRQAPGKERELVAAITADTGTTYYADSVKGRFTISRDNAKNTVYLQMNSLKPEDTAVYYCATRDVFYDDDYWGQGTQVTVSS
  polyreactivity (PSR sort gate): high polyreactivity
